{"source": "the RNAGym collection of RNA variant scans (doi:10.1093/molbev/msab373)", "parents": {"B1": {"name": "Azoarcus group I ribozyme (parent)", "chain": "GUGCCUUGCGCCGGGAAACCACGCAAGGGAUGGUGUCAAAUUCGGCGAAACCUAAGCGCCCGCCCGGGCGUAUGGCAACGCCGAGCCAAGCUUCGGCGCCUGCGCCGAUGAAGGUGUAGAGACUAGACGGCACCCACCUAAGGCAAACGCUAUGGUGAAGGCAUAGUCCAGGGAGUGGCGAAAGUCACACAAACCGG"}}, "data": [{"variants_of": "B1", "experiment": "reverse-splicing fitness (ratio to wild type); higher = more active; in vitro selection; Mg2+ level not given", "summary_of_the_method": "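An in vitro group I ribozyme library with randomized positions was T7-transcribed and gel-purified. In triplicate, 10 pmol RNA in EPPS pH 7.5 was reacted with 50 pmoles of a 30-nt RNA substrate for 1 h at 37 °C across several added MgCl2 levels (1–48 mM), then stopped with EDTA. Products were reverse transcribed from a substrate-complementary primer, PCR-amplified and sequenced (HiSeq 4000). Fitness is a variant's read proportion after selection over that before, normalised to wild type.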", "values": [{"variant": "C82G A120G A145U C150U C169U U176A", "reverse-splicing fitness": 0.0201}, {"variant": "C82G A120C U176C", "reverse-splicing fitness": 0.107}, {"variant": "C82G A120C U176G", "reverse-splicing fitness": 0.0151}, {"variant": "C82G A120C U176A", "reverse-splicing fitness": 0.0764}, {"variant": "C82G A120G C150U U176G", "reverse-splicing fitness": 0.0083}, {"variant": "C82G A120G C150U U176C", "reverse-splicing fitness": 0.0192}, {"variant": "C82G A120G C150U U176A", "reverse-splicing fitness": 0.0117}, {"variant": "C82G A120G A145C C150U C169A U176G", "reverse-splicing fitness": 0.00471}, {"variant": "C82G A120G A145C C150U C169A U176A", "reverse-splicing fitness": 0.0126}, {"variant": "C82G A120G A145C C150U C169A U176C", "reverse-splicing fitness": 0.00669}, {"variant": "C82G A120G A145C C150G C169G U176A", "reverse-splicing fitness": 0.00772}, {"variant": "C82G A120G A145C C150G C169G U176C", "reverse-splicing fitness": 0.00761}, {"variant": "C82G A120G A145C C150G C169G U176G", "reverse-splicing fitness": 0.00412}, {"variant": "C82G A120G A145G C150U C169A U176C", "reverse-splicing fitness": 0.0181}, {"variant": "C82G A120G A145G C150U C169A U176A", "reverse-splicing fitness": 0.0171}, {"variant": "C82G A120G A145G C150U C169A U176G", "reverse-splicing fitness": 0.00521}, {"variant": "C82G A120G A145G U176G", "reverse-splicing fitness": 0.00636}, {"variant": "C82G A120G A145G U176A", "reverse-splicing fitness": 0.0129}, {"variant": "C82G A120G A145G U176C", "reverse-splicing fitness": 0.0211}, {"variant": "C82G A120G A145C C150A", "reverse-splicing fitness": 0.00852}, {"variant": "C82G A120G A145C C150G", "reverse-splicing fitness": 0.00798}, {"variant": "C82G A120G A145C C150U", "reverse-splicing fitness": 0.0111}, {"variant": "C82G A120C C150U C169U U176C", "reverse-splicing fitness": 0.0162}, {"variant": "C82G A120C C150U C169U U176A", "reverse-splicing fitness": 0.0159}, {"variant": "C82G A120C C150U C169U U176G", "reverse-splicing fitness": 0.00634}, {"variant": "C82G A120U A145C", "reverse-splicing fitness": 0.204}, {"variant": "C82G A120C C150U C169U", "reverse-splicing fitness": 0.0173}, {"variant": "C82G A120C C150U C169A", "reverse-splicing fitness": 0.0121}, {"variant": "C82G A120C C150U C169G", "reverse-splicing fitness": 0.00822}, {"variant": "C82G A120C C169U", "reverse-splicing fitness": 0.0232}, {"variant": "C82G A120C C169G", "reverse-splicing fitness": 0.00817}, {"variant": "C82G A120C C169A", "reverse-splicing fitness": 0.00902}, {"variant": "C82G A120G A145C C150A C169G", "reverse-splicing fitness": 0.00875}, {"variant": "C82G A120G A145C C150A C169U", "reverse-splicing fitness": 0.00751}, {"variant": "C82G A120G A145C C150A C169A", "reverse-splicing fitness": 0.00825}, {"variant": "C82G A120G A145C C150U C169U", "reverse-splicing fitness": 0.0103}, {"variant": "C82G A120G A145C C150U C169G", "reverse-splicing fitness": 0.0163}, {"variant": "C82G A120G A145C C150U C169A", "reverse-splicing fitness": 0.0116}, {"variant": "C82G A120G A145U U176G", "reverse-splicing fitness": 0.0047}, {"variant": "C82G A120G A145U U176A", "reverse-splicing fitness": 0.0157}, {"variant": "C82G A120G A145U U176C", "reverse-splicing fitness": 0.0191}, {"variant": "C82G A120G A145U C150U U176A", "reverse-splicing fitness": 0.0121}, {"variant": "C82G A120G A145U C150U U176C", "reverse-splicing fitness": 0.0189}, {"variant": "C82G A120G A145U C150U U176G", "reverse-splicing fitness": 0.00475}, {"variant": "C82G A120G U176G", "reverse-splicing fitness": 0.00803}, {"variant": "C82G A120G U176A", "reverse-splicing fitness": 0.0149}, {"variant": "C82G A120G U176C", "reverse-splicing fitness": 0.0208}, {"variant": "C82G A120C C169U U176G", "reverse-splicing fitness": 0.00468}, {"variant": "C82G A120C C169U U176C", "reverse-splicing fitness": 0.0155}, {"variant": "C82G A120C C169U U176A", "reverse-splicing fitness": 0.019}, {"variant": "C82G A120G C169A U176G", "reverse-splicing fitness": 0.00403}, {"variant": "C82G A120G C169A U176C", "reverse-splicing fitness": 0.0252}, {"variant": "C82G A120G C169A U176A", "reverse-splicing fitness": 0.0209}, {"variant": "C82G A120G A145U C150U C169A U176C", "reverse-splicing fitness": 0.0133}, {"variant": "C82G A120G A145U C150U C169A U176A", "reverse-splicing fitness": 0.0161}, {"variant": "C82G A120G A145U C150U C169A U176G", "reverse-splicing fitness": 0.00467}, {"variant": "C82G A120G A145U C150G C169A", "reverse-splicing fitness": 0.0112}, {"variant": "C82G A120G A145U C150G C169G", "reverse-splicing fitness": 0.0107}, {"variant": "C82G A120G A145U C150G C169U", "reverse-splicing fitness": 0.01}, {"variant": "C82G A120U A145C C150A", "reverse-splicing fitness": 0.00856}, {"variant": "C82G A120U A145C C150U", "reverse-splicing fitness": 0.0385}, {"variant": "C82G A120U A145C C150G", "reverse-splicing fitness": 0.0203}, {"variant": "C82G A120G A145U C150G U176G", "reverse-splicing fitness": 0.00404}, {"variant": "C82G A120G A145U C150G U176C", "reverse-splicing fitness": 0.0103}, {"variant": "C82G A120G A145U C150G U176A", "reverse-splicing fitness": 0.00666}, {"variant": "C82G A120G C150A", "reverse-splicing fitness": 0.00962}, {"variant": "C82G A120G C150G", "reverse-splicing fitness": 0.00725}, {"variant": "C82G A120G C150U", "reverse-splicing fitness": 0.0196}, {"variant": "C82G A120G C150G C169A U176A", "reverse-splicing fitness": 0.0109}, {"variant": "C82G A120G C150G C169A U176G", "reverse-splicing fitness": 0.00588}, {"variant": "C82G A120G C150G C169A U176C", "reverse-splicing fitness": 0.0102}, {"variant": "C82G A120G A145G C169G U176C", "reverse-splicing fitness": 0.0345}, {"variant": "C82G A120G A145G C169G U176A", "reverse-splicing fitness": 0.0221}, {"variant": "C82G A120G A145G C169G U176G", "reverse-splicing fitness": 0.00379}, {"variant": "C82G A120G A145U C150G C169G U176G", "reverse-splicing fitness": 0.00385}, {"variant": "C82G A120G A145U C150G C169G U176A", "reverse-splicing fitness": 0.00742}, {"variant": "C82G A120G A145U C150G C169G U176C", "reverse-splicing fitness": 0.00564}, {"variant": "C82G A120G C150A C169U U176A", "reverse-splicing fitness": 0.0248}, {"variant": "C82G A120G C150A C169U U176G", "reverse-splicing fitness": 0.00754}, {"variant": "C82G A120G C150A C169U U176C", "reverse-splicing fitness": 0.02}, {"variant": "C82G A120G C150G C169G U176A", "reverse-splicing fitness": 0.00768}, {"variant": "C82G A120G C150G C169G U176G", "reverse-splicing fitness": 0.00466}, {"variant": "C82G A120G C150G C169G U176C", "reverse-splicing fitness": 0.00511}, {"variant": "C82G A120U A145C C150G C169G U176A", "reverse-splicing fitness": 0.00247}]}]}
